From patent publication US20250092134A1 (Janssen / Centocor, published 2025)

B1: 23A9B10 (antibody, V domains shown)
VH: EVQLQESGPGLVKPSQSLSLTCSVTGYSITSGYYWNWIRQFLGNKLEWMGYITYDGSNNYNPSLKDRISITRDTSKNQFFLNLNSVTTDDTATYYCARGGGYVPVWGTGTTVTVSS
VL: IQMTQSPAFLSVSPGERVSFSCRASQNIGTSIHWYQQRTNGSPRLLIKYASESISGIPSRFSGSGSGTDFTLSINSVESEDFADYYCHQSHNWPTTFGAGTKLELK
B2: 20A9A9 (antibody, V domains shown)
VH: EVQLQESGPGLVQPSQSLSITCTVSGFSLTSYGVHWVRQSPGKGLEWLGIIWSAGGTDYNAAFISRLSISKDNSKSQIFFKLNSLHADDTAIYFCARGSFYDYGRLDYWGQGTTLTVSS
VL: DIVMTQSHRFMSTSVGDRVSITCKASQDVSTAVAWYQQKPGQSPKLLIYSSSYRYTGVPDRFTGSGSGTDFTFTISSVQAEDLAVYYCQQHYGTPYTFGGGTKLEIQ
B3: 20C12A3 (antibody, V domains shown)
VH: EVQLQESGAELVRPGTSVKMSCKASGYTFTHYWIDWTKQRPGHGLEWIGNIYPGGGYTNYNENFKGKATLTADKSSSTVFMQFSSLTSDDSAIYYCTRKGYYYGSDWYFDVWGTGTTVTVSS
VL: STSVGDRVSITCKASQDVSTAVAWYHQKPGQSPKLLIYSASYRYTGVPDRFTGSGSGTDFTFTISSVQAEDLAVYYCQQHYTTPYTFGGGTKLEMK

Molecular target: Vβ17 (on cells expressing Vβ17)
Sequence (A0A075B6N1 22-114): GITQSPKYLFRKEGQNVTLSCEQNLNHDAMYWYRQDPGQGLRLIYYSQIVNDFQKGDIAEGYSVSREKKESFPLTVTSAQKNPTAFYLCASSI
Assay: cell-based or functional assay

First: B1
Second: B2
The “Cell Internalization (EC50)” value of the first is 53-fold higher: 15.4 nM for the first, 0.29 nM for the second.

In the case of B3, the “Cell Internalization (EC50)” value is reported as 0.06 nM.
